In the supplement of paper PMC12855868:

B1: library; numbered along this chain (parent)
chain: MAAAGGARLLRAASAVLGGPAGRWLHHAGSRAGSSGLLRNRGPGGSAEASRSLSVSARARSSSEDKITVHFINRDGETLTTKGKVGDSLLDVVVENNLDIDGFGACEGTLACSTCHLIFEDHIYEKLDAITDEENDMLDLAYGLTDRSRLGCQICLTKSMDNMTVRVPETVADARQSIDVGKTS

Variants of: B1
Test: scaled log2 fold change in cell abundance, elesclomol vs control (0 = silent mean, 1 = nonsense mean) (scaled log2 ratio); higher = higher viability under elesclomol (loss of FDX1 cuproptosis function)
Conditions: glucose 10 mM
[1] = with ABC1 FDX1 KO, elesclomol 5 nM, 14 days
[2] = with HEK293T FDX1 KO, elesclomol 40 nM, 11 days
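Further: variant abundance is its share of total variant reads in each endpoint sample, from next-generation sequencing of the integrated ORF PCR-amplified out of genomic DNA.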

| Variant | scaled log2 fold change [1] | scaled log2 fold change [2] |
| --- | --- | --- |
| V69Y | 1.05 | 1.86 |
| V69M | 0.273 | -0.0634 |
| V69T | 0.119 | 0.953 |
| V69R | 1.13 | 0.458 |
| V69L | -0.537 | -0.407 |
| V69Q | 1.14 | 0.294 |
| V69S | 0.684 | 0.329 |
| V69D | 1.04 | 1.26 |
| V69E | 1.06 | 1.55 |
| V69P | 1.29 | 0.484 |
| R74G | 0.597 | -0.839 |
| R74E | -0.261 |  |
| R74N | -1.08 | 1.31 |
| R74M | -0.486 | 0.445 |
| R74Q | 0.323 | -0.599 |
| R74L | 0.361 | -0.577 |
| R74W | 0.234 |  |
| R74T | -0.0213 | -0.108 |
| R74C | 0.324 | 0.937 |
| R74D | 0.558 | 1.28 |
| R74V | 0.486 |  |
| R74F | 0.533 | -0.0248 |
| R74Y | -0.0737 | 0.186 |
| R74A | -0.255 | -0.8 |
| R74S | 0.363 | 0.881 |

| Variant | scaled log2 fold change [1] | scaled log2 fold change [2] |
| --- | --- | --- |
| R74P | 0.11 |  |
| R74H | -0.0392 | -0.565 |
| R74I | -0.228 | 1.14 |
| H70F | 0.152 | 0.385 |
| H70N | 0.0583 | -0.00885 |
| H70V | 0.191 | -1.13 |
| H70Q | 0.0254 | -0.0243 |
| H70K | -0.215 | 0.573 |
| H70G | 0.373 | 1.09 |
| H70Y | 0.0486 |  |
| H70W | -0.0809 | -0.922 |
| H70E | 0.148 | 0.829 |
| H70R | -0.349 | -0.0802 |
| H70I | 0.093 | -0.0895 |
| H70D | 0.33 | 1.31 |
| H70T | -0.764 |  |
| H70S | 0.277 | -0.697 |
| H70P | 0.933 | 0.983 |
| H70A | 0.42 | -0.104 |
| H70L | -0.219 | -0.612 |
| H70C | 0.396 |  |
| H70M | -0.0655 | 0.0916 |
| I72Y | -1.04 | -0.583 |
| I72M | -0.0135 | 0.0709 |
| I72D | 0.34 | -0.132 |

| Variant | scaled log2 fold change [1] | scaled log2 fold change [2] |
| --- | --- | --- |
| I72K | 0.155 | -0.273 |
| I72P | 0.991 | 1.28 |
| I72G | -0.24 | -0.556 |
| I72W | 0.00502 | 1.02 |
| I72V | -0.116 | -1.01 |
| I72N | 0.0538 | -0.293 |
| I72T | -0.0209 | -0.405 |
| I72A | 0.0764 | -0.682 |
| I72L | -0.315 | -0.275 |
| I72H | 0.00982 | -0.581 |
| I72Q | -0.00335 | 0.0078 |
| I72F | -0.0218 | -0.0982 |
| I72S | -0.00568 | 0.815 |
| I72R | -0.783 | 0.539 |
| I72C | 0.238 | -0.937 |
| I72E | -0.111 | -0.295 |
| N73D | 0.282 | -0.23 |
| N73V | 0.102 | 0.976 |
| N73R | 0.219 | -0.254 |
| N73H | -0.0805 | -0.159 |
| N73W | -0.0509 |  |
| N73E | 0.311 | 0.823 |
| N73C | -0.441 | -0.308 |
| N73I | -1.24 |  |
| N73Q | -0.00176 | 0.207 |

| Variant | scaled log2 fold change [1] | scaled log2 fold change [2] |
| --- | --- | --- |
| N73P | 0.17 | -0.147 |
| N73M | -0.526 | 0.0726 |
| N73G | 0.582 | 0.401 |
| N73F | 0.238 | -0.334 |
| N73A | 0.491 | -0.233 |
| N73T | -0.183 |  |
| N73Y | 0.218 | -0.741 |
| N73S | 0.237 |  |
| N73K | 0.136 | 1.39 |
| N73L | -0.0741 | 0.0359 |
| D65Y | 0.323 | 0.288 |
| E77K | 0.242 | -0.341 |
| E77P | 0.108 |  |
| E77Y | 0.514 | -0.542 |
| E77T | -1.24 | -0.154 |
| E77Q | -0.0695 | 0.00586 |
| E77F | -0.642 | 0.94 |
| E77H | -0.0496 | -0.0091 |
| E77A | 0.306 | 1.06 |
| E77I | -0.922 | -0.714 |
| E77M | -0.575 | -0.139 |
| E77V | -0.145 | -0.226 |
| E77S | -0.974 | 0.00555 |
| E77G | 0.311 | -0.306 |
| E77L | 0.262 | 0.144 |

| Variant | scaled log2 fold change [1] | scaled log2 fold change [2] |
| --- | --- | --- |
| E77D | -0.61 | -0.9 |
| E77N | 0.0389 | -0.504 |
| E77R | -0.178 | -0.307 |
| E77W | 0.139 | 0.815 |
| E77C | -0.00193 | -0.0101 |
| D75S | -0.0315 |  |
| D75R | -0.271 | -0.0753 |
| D75I | -0.502 | -0.38 |
| D75Y | -0.306 |  |
| D75Q | 0.457 |  |
| D75C | -0.0427 | -0.175 |
| D75T | -0.752 | 0.0498 |
| D75W | 0.241 | -0.146 |
| D75N | -0.329 | 0.364 |
| D75H | 0.273 |  |
| D75F | -0.548 | 0.355 |
| D75M | -0.0398 | -0.59 |
| D75L | 0.0705 | -0.00446 |
| D75K | -0.678 |  |
| D75V | -0.11 | -0.372 |
| D75A | -0.423 | 0.113 |
| D75E | 0.271 | 0.128 |
